Experimental data taken from US20230151091A1 (NEW YORK UNIVERSITY, published 2023).

T1: mouse MuSK, endogenous (C2C12 myotubes; neuromuscular synapses of mice) (mouse, UniProt Q61006 22-868)
T1 sequence (looked up): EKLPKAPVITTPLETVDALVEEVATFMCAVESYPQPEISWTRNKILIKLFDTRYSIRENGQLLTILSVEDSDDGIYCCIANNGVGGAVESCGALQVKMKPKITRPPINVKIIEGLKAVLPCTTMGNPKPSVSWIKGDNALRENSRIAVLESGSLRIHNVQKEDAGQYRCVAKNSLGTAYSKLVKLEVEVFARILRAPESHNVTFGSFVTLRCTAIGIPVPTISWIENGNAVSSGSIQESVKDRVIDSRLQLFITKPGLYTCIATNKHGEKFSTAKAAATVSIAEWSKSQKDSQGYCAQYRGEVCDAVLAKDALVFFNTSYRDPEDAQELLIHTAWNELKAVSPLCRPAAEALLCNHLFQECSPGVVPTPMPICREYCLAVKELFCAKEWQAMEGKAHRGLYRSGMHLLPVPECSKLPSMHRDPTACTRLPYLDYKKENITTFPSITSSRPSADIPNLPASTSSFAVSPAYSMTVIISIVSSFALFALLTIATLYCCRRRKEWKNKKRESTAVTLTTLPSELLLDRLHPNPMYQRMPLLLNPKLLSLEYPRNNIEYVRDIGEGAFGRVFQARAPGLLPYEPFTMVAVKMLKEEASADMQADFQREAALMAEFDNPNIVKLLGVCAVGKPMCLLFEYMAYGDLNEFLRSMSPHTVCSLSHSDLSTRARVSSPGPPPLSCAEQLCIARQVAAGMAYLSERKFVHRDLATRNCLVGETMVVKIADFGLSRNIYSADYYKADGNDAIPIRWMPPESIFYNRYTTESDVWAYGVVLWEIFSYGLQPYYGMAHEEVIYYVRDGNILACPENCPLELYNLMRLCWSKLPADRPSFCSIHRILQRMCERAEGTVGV

T2: mouse MuSK (mouse, UniProt Q61006 22-494, limits assumed)
T2 construct: Coated on ELISA plates or on the Biacore chip; also called full length mouse MuSK; mouse MuSK (in house produced in HEK293 cells)
T2 sequence (looked up): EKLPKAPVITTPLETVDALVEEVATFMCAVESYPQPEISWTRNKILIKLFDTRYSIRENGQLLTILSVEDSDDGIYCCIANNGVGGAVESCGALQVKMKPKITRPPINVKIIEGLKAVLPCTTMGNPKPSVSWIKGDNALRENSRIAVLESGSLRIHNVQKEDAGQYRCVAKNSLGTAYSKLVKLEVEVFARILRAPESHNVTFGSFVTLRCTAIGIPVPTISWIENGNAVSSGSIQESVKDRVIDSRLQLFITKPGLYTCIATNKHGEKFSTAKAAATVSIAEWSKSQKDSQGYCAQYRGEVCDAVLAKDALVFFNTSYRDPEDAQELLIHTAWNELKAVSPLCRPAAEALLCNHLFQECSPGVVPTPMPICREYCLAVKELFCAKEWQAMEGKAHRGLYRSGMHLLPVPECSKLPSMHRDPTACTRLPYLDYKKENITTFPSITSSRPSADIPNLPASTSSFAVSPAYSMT

T3: rat MuSK (rat, UniProt Q62838 22-494, limits assumed)
T3 construct: Coated on Biacore chip (200RU) or ELISA plate
T3 sequence (looked up): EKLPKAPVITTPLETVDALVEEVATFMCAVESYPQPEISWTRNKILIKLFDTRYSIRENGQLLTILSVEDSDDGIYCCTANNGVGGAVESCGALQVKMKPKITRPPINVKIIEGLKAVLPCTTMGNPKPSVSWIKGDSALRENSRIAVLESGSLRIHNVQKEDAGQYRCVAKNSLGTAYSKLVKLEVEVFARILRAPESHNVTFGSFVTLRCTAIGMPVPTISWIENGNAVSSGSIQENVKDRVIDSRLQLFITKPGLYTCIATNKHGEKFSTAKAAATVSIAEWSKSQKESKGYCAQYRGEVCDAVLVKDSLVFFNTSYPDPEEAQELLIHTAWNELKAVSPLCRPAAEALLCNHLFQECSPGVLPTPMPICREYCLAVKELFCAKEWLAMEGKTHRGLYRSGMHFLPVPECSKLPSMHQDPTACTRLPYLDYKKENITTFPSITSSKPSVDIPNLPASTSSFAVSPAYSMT


Key:
[1] = biological target: T1, mouse MuSK, endogenous (C2C12 myotubes; …); experiment: cell-based or functional assay
[2] = biological target: T4, cynomolgus monkey MuSK (cynomolgus monkey, UniProt A0A2K5USF6 24-487); experiment: Biacore, MuSK on chip (200RU), 66.7 nM mAb, dissociation pH 7.4
Method: (§1) For affinity determination, a CMS chip was coated with cynomolgus monkey, rat and mouse MuSK (200RU) and 66.7 nM of antibody was applied and kinetic parameters calculated (Table 8). The following conclusions could be drawn: (1) 3B2g1m3 and 3B2g2m3 (m3 variants) show significant drop in affinity for MuSK for all species tested; (2) 3B2g1m2 and 3B2g2m2 (m2 variants) show some drop in affinity for MuSK; (3) 3B2g1m1, 3B2g2m1, 3B2g1m4, 3B2g2m4 (ml and m4 variants) show no drop in affinity for MuSK for all species tested; and (4) for all clones there is no difference between g1 and g2 variants (VL methionine versus serine in CDR3).

[3] = biological target: T2, mouse MuSK; experiment: as above
Method: as §1

[4] = biological target: T3, rat MuSK; experiment: as above
Method: as §1

[5] = biological target: T4, cynomolgus monkey MuSK; experiment: Biacore, MuSK on chip, association pH 7.4, dissociation pH 5.5
Method: as §1
(§2) In order to study pH dependent binding of our antibodies to MuSK, the same Biacore was used as above, but now dissociation was done at pH 5.5 instead of pH 7.4. […] The following conclusions could be drawn for the different variants: (1) 3B2g1m3 and 3B2g2m3 (m3 variants) show significant drop in affinity for MuSK for all species tested; (2) 3B2g1m2 and 3B2g2m2 (m2 variants) show some drop in affinity for MuSK; (3) 3B2g1m1, 3B2g2m1, 3B2g1m4, 3B2g2m4 (m1 and m4 variants) show no drop in affinity for MuSK for all species tested; and (4) for all clones there is no difference between g1 and g2 variants (VL methionine versus serine in CDR3).

[6] = biological target: T2, mouse MuSK; experiment: as above
Method: as §1, §2

[7] = biological target: T3, rat MuSK; experiment: as above
Method: as §1, §2

T4 sequence (A0A2K5USF6 entry or part of it): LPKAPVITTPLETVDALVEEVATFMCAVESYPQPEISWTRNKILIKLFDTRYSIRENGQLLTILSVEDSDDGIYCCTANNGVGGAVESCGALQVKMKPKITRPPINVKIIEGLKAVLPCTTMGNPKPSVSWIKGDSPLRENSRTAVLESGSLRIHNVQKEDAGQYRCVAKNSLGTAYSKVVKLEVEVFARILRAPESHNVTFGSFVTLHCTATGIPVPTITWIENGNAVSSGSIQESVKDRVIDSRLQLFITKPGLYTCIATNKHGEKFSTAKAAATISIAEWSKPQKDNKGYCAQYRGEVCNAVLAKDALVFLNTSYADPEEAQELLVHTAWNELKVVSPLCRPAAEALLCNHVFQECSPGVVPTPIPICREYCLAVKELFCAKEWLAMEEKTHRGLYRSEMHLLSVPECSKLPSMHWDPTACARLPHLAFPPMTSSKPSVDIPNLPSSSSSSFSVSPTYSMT

Row | MuSK phosphorylation in C2C12 myotubes [1] | R0 [2] | koff [2] | kon [2] | R0 [3] | koff [3] | kon [3] | R0 [4] | koff [4] | kon [4] | R0 [5] | koff [5] | kon [5] | R0 [6] | koff [6] | kon [6] | R0 [7] | koff [7] | kon [7] | Binder
1 | ~58 % of 1 nM agrin | 140 RU | 0.00086 s⁻¹ | 730000 M⁻¹ s⁻¹ | 192 RU | 0.00065 s⁻¹ | 1.08e+06 M⁻¹ s⁻¹ | 155 RU | 0.00192 s⁻¹ | 1.12e+06 M⁻¹ s⁻¹ | 146 RU | 0.00261 s⁻¹ | 680000 M⁻¹ s⁻¹ | 191 RU | 0.00304 s⁻¹ | 980000 M⁻¹ s⁻¹ | 171 RU | 0.00558 s⁻¹ | 950000 M⁻¹ s⁻¹ | 3B2g1m4 (antibody, human IgG1, V domains shown, human IgG1-LALA backbone; produced in HEK293 cells) VH: EVQLLESGGGLVQPGGSLRLSCAASGFTFSDYGMSWVRQAPGKGLEWVSAIPWQGGSTYYKESVKGRFTISRDNSKNTLYLQMNSLRAEDTAVYYCAKRSGRIAFGALDAWGQGTLVTVSS VL: QTVVTQEPSFSVSPGGTVTLTCGLSSGSVTSSNYPDWYQQTPGQAPRTLIYSTDSRHSGVPDRFSGSILGNKAALTITGAQADDESDYYCGLYMYSGSKNYVFGGGTKLTVL
2 | ~58 % of 1 nM agrin | 142 RU | 0.00088 s⁻¹ | 790000 M⁻¹ s⁻¹ | 193 RU | 0.00064 s⁻¹ | 1.15e+06 M⁻¹ s⁻¹ | 158 RU | 0.00196 s⁻¹ | 1.19e+06 M⁻¹ s⁻¹ | 148 RU | 0.00256 s⁻¹ | 750000 M⁻¹ s⁻¹ | 191 RU | 0.003 s⁻¹ | 1.04e+06 M⁻¹ s⁻¹ | 172 RU | 0.00538 s⁻¹ | 1.02e+06 M⁻¹ s⁻¹ | 3B2g2m4 (antibody, human IgG1, V domains shown, human IgG1-LALA backbone; produced in HEK293 cells) VH: EVQLLESGGGLVQPGGSLRLSCAASGFTFSDYGMSWVRQAPGKGLEWVSAIPWQGGSTYYKESVKGRFTISRDNSKNTLYLQMNSLRAEDTAVYYCAKRSGRIAFGALDAWGQGTLVTVSS VL: QTVVTQEPSFSVSPGGTVTLTCGLSSGSVTSSNYPDWYQQTPGQAPRTLIYSTDSRHSGVPDRFSGSILGNKAALTITGAQADDESDYYCGLYSYSGSKNYVFGGGTKLTVL
3 | ~80 % of 1 nM agrin | 136 RU | 0.00179 s⁻¹ | 890000 M⁻¹ s⁻¹ | 158 RU | 0.00231 s⁻¹ | 1.71e+06 M⁻¹ s⁻¹ | 130 RU | 0.00281 s⁻¹ | 1.56e+06 M⁻¹ s⁻¹ | 146 RU | 0.00326 s⁻¹ | 860000 M⁻¹ s⁻¹ | 153 RU | 0.0882 s⁻¹ | 210000 M⁻¹ s⁻¹ | 145 RU | 0.0973 s⁻¹ | 40000 M⁻¹ s⁻¹ | 3B2g2m2 (antibody, human IgG1, V domains shown, human IgG1-LALA backbone; produced in HEK293 cells) VH: EVQLLESGGGLVQPGGSLRLSCAASGFTFSDYGMSWVRQAPGKGLEWVSAIPGSGGSTYYKESVKGRFTISRDNSKNTLYLQMNSLRAEDTAVYYCAKRSGRIAFGALDAWGQGTLVTVSS VL: QTVVTQEPSFSVSPGGTVTLTCGLSSGSVTSSNYPDWYQQTPGQAPRTLIYSTDSRHSGVPDRFSGSILGNKAALTITGAQADDESDYYCGLYSYSGSKNYVFGGGTKLTVL
